What was measured:
SALL4A (full-length) = SALL4A (full-length) (Homo sapiens, UniProt Q9UJQ4 1-1053); test: EMSA
SALL4 ZFC4 = target: T1, SALL4 ZFC4 (UniProt Q9UJQ4 864-929); test: ITC
T1 sequence: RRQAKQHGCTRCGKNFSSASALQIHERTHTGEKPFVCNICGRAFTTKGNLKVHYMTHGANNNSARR

SALL4A (full-length), sequence (Q9UJQ4 whole entry): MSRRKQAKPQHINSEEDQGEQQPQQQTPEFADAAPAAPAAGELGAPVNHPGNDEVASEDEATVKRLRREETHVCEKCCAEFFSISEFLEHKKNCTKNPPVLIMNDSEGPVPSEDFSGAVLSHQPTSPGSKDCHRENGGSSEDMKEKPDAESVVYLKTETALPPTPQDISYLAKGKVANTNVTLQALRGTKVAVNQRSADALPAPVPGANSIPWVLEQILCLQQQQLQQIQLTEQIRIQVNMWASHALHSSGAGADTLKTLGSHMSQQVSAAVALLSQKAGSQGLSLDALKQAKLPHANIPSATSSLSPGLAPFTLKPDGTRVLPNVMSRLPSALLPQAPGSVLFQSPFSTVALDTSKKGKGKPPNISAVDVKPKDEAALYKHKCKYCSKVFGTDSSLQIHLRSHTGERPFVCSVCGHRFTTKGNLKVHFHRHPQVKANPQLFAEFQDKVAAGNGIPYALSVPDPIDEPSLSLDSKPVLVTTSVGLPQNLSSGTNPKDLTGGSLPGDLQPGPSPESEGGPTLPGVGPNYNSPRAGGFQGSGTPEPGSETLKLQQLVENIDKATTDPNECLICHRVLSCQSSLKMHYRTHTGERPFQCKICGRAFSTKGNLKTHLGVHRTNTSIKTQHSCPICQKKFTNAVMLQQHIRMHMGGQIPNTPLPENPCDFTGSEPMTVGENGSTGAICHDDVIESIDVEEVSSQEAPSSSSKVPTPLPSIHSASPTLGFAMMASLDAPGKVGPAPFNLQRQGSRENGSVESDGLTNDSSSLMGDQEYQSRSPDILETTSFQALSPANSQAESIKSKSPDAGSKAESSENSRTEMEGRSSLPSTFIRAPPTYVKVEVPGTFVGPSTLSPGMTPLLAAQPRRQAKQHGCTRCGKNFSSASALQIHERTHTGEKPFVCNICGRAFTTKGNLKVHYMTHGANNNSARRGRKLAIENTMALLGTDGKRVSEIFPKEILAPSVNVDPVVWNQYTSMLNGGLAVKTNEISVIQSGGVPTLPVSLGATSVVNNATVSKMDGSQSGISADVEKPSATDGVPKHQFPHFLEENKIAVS

B1: KDM3A EMSA WT oligo (dsDNA)
DNA 1: TCTTCATTTATCCTTCAAAA
DNA 2: TTTTGAAGGATAAATGAAGA
- binding result (SALL4A (full-length)): binds

B2: ITC Mutant oligo 2 (dsDNA)
DNA 1: GATAAACGCTTG
DNA 2: CAAGCGTTTATC
- binding result (SALL4 ZFC4): no binding

B3: ITC Mutant oligo 1 (dsDNA)
DNA 1: GAGTCGCTAATG
DNA 2: CATTAGCGACTC
- binding result (SALL4 ZFC4): no binding

B4: KDM3A EMSA Mutant oligo (dsDNA)
DNA 1: TCTTCTTTTAACCTTCAAAA
DNA 2: TTTTGAAGGTTAAAAGAAGA
- binding result (SALL4A (full-length)): no binding

Reference: publication PMC8197658
